The record followed here is patent US20250230246A1 (SAMYANG BIOPHARM USA, published 2025).

The target in assay [1] is T1, Human CD64 (FcγRI) (human, UniProt P12314 16-288, limits assumed). Put plainly: kinetic binding assay (ka, kd, Rmax in RU; method not named).
Assay [2] concerns the target T2, Human CD32a (FcγRIIA) (human, UniProt P12318 34-217, limits assumed).
T2 sequence (looked up): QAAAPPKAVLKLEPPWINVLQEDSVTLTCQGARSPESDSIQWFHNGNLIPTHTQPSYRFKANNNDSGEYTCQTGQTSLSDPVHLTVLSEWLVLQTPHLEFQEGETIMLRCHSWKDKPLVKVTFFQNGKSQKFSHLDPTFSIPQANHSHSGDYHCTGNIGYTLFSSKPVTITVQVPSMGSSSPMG
The description is as above.

A further assay deals with MICA*008 (human). The description is as above.
A further assay addresses MICB*005 (human). Described as above.
Assay [3] concerns the target T1, Human CD64 (FcγRI). The assay can be described thus: kinetic binding assay (Table 2); ND = not detectable.
Assay [4] has as its target T2, Human CD32a (FcγRIIA). The assay is described as above.

T1 sequence (P12314 16-288 limits assumed): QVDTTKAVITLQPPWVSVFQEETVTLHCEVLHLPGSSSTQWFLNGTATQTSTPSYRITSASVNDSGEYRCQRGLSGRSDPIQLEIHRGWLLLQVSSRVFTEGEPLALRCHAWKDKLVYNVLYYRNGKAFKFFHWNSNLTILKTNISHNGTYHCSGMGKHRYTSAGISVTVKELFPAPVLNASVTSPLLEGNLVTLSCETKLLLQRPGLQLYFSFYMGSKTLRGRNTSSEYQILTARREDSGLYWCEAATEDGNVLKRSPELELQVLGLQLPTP

B1: SYB-010 (antibody, human IgG1, kappa)
heavy: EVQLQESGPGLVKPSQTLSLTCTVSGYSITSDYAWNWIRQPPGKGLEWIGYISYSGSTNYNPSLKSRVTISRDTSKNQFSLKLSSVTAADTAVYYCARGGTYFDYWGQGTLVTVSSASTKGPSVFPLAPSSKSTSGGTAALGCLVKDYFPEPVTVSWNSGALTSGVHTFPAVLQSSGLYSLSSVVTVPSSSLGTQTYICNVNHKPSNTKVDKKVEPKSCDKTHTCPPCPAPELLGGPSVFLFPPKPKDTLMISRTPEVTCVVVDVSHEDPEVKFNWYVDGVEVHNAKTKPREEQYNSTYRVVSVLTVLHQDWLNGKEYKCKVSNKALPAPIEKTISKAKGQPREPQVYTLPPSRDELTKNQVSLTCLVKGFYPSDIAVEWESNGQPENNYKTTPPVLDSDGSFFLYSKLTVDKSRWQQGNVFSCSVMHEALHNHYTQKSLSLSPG
light: DVVMTQSPSTLSASVGDRVTITCRASAHINNWLAWYQQKPGKAPKLLISDATSLESGVPSRFSGSGSGKEYTLTISSLQPDDFATYYCQHYWSTPWTFGQGTKVEIKRTVAAPSVFIFPPSDEQLKSGTASVVCLLNNFYPREAKVQWKVDNALQSGNSQESVTEQDSKDSTYSLSSTLTLSKADYEKHKVYACEVTHQGLSSPVTKSFNRGEC
notes: also called SYB-010 Fc wildtype
Turning to B1, the equilibrium dissociation constant (Kd) in the assay with Human CD64 (FcγRI) [1] came to 0.00161 µM; in the assay with Human CD32a (FcγRIIA) [2], 1.54 µM; in the assay with MICA*008, 0.00098 µM; with MICB*005, 0.021 µM. Also, the koff in the assay with Human CD64 (FcγRI) [1] turned out to be 0.00133 s⁻¹; with Human CD32a (FcγRIIA) [2] it was 0.772 s⁻¹; with MICA*008 it was 0.000627 s⁻¹; in the assay with MICB*005, 0.0394 s⁻¹. Moreover, the kon with Human CD64 (FcγRI) [1] is 825000 M⁻¹ s⁻¹; in the assay with Human CD32a (FcγRIIA) [2], 500000 M⁻¹ s⁻¹; in the assay with MICA*008 it was 639000 M⁻¹ s⁻¹; in the assay with MICB*005, 1.88e+06 M⁻¹ s⁻¹.

B2: SYB-011 (antibody, human IgG1, kappa, L234A L235A)
heavy: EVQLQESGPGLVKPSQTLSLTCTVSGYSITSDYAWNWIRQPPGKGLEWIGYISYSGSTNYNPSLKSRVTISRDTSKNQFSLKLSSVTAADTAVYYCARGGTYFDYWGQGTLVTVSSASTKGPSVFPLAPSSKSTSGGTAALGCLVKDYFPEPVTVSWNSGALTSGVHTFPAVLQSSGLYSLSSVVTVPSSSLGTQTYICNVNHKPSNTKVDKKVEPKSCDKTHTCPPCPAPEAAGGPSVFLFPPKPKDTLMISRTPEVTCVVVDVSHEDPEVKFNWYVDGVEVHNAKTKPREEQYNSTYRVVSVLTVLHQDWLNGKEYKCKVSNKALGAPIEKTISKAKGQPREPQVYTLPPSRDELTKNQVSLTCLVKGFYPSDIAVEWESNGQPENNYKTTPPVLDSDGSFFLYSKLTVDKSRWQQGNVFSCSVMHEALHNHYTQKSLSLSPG
light: B1 light
notes: Positions are EU index numbers; also called SYB-011 Fc mutant; effectorless anti-MIC antibody
On to B2, for which, in the assay with MICA*008, binding was characterised by a dissociation constant (Kd) of 0.00104 µM, the off-rate (koff) was found to be 0.000617 s⁻¹ and the on-rate constant (kon) worked out at 596000 M⁻¹ s⁻¹. In addition, in the assay with MICB*005, the Kd turned out to be 0.0198 µM, the koff turned out to be 0.0939 s⁻¹ and the on-rate constant (kon) was found to be 4.74e+06 M⁻¹ s⁻¹. Further, the binding result with Human CD64 (FcγRI) [3] is “no binding”. The binding result with Human CD32a (FcγRIIA) [4] is “no binding”.

A word on the Kd: it is the concentration at which binding is half-saturated. The low end stands for higher affinity, the high end for lower affinity. The koff is a measure of how fast the partners let go of each other. Lower therefore signals a long-lived complex. In general, kon refers to the second-order rate constant of association.
